Our source for the IC50 values is US20200347136A1, “CONSTRAINED CYCLIC PEPTIDES AS INHIBITORS OF THE CD2:CD58 PROTEIN-PROTEIN INTERACTION FOR TREATMENT OF DISEASES AND AUTOIMMUNE DISORDERS” (Board of Supervisors for the University of Louisiana System, priority 2019, published 2020).

Bounds are passed on as bounds.

Test [1] deals with CD58 expressed on OVCAR-3 and HFLS-RA cells (human) (UniProt P19256). The test can be described thus: cell adhesion inhibition (Jurkat CD2 / CD58 cells); HFLS-RA cells.
CD58 expressed on OVCAR-3 and HFLS-RA cells (human), sequence (P19256 29-250): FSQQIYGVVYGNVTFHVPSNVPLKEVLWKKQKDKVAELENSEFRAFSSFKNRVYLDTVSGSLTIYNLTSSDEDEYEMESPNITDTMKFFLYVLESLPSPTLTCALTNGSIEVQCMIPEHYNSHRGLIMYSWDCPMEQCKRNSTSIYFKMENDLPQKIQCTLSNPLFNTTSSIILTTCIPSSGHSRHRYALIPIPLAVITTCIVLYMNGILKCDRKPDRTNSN
The target is the same in test [2]. Description: cell adhesion inhibition (Jurkat CD2 / CD58 cells); OVCAR-3 cells.

As to Control, the IC50 in test [1] and in test [2] was > 100 µM each time.
Regarding SFTI-wt (control), the IC50 in test [1] and in test [2] was > 50 µM in each case.

Broadly, the IC50 is the midpoint of a concentration-inhibition curve. Low values mean inhibition by little substance, high ones a need for much substance.
